Target: IL-6 (UniProt P05231 30-212, limits assumed)
Experiment: cell-based or functional assay

Chain of IL-6 (P05231 30-212 limits assumed): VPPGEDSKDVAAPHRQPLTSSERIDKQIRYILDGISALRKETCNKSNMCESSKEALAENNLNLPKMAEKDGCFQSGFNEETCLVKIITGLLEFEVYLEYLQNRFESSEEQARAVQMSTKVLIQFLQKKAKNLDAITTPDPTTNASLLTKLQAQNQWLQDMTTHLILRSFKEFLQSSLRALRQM

B1: RDB1542 (Fc fusion)
chain: QNQWLQDMTTHLILRSFKEFLQSSLRALRQMSGGSGGGSSERIDKQIRYILDGISALRKETCNKSNMCESSKEALAENNLNLPKMAEKDGCFQSGFNEETCLVKIITGLLEFEVYLEYLQNRFESSEEQARAVQMSTKVLIQFLQKKAKNLDAITTPDPTTNASLLTKLQASELLDPCGYISPESPVVQLHSNFTAVCVLKEKCMDYFHVNANYIVWKTNHFTIPKEQYTIINRTASSVTFTDIASLNIQLTCNILTFGQLEQNVYGITIISGGSERKCCVECPPCPAPPVAGPSVFLFPPKPKDTLMISRTPEVTCVVVDVSHEDPEVQFNWYVDGVEVHNAKTKPREEQFNSTFRVVSVLTVVHQDWLNGKEYKCKVSNKGLPAPIEKTISKTKGQPREPQVYTLPPSREEMTKNQVSLTCLVKGFYPSDISVEWESNGQPENNYKTTPPMLDSDGSFFLYSKLTVDKSRWQQGNVFSCSVMHEALHNHYTQKSLSLSPGK
- IC50, inhibition of IL-6-dependent differentiation of M1 cells (percent CD32 positive cells): > 1000 µM

B2: RDB1562 (Fc fusion)
chain: QNQWLQDMTTHLILRSFKEFLQSSLRALRQMSGGSGGGSSERIDKQIRYILDGISALRKETCNKSNMCESSKEALAENNLNLPKMAEKDGCFQSGFNEETCLVKIITGLLEFEVYLEYLQNRFESSEEQARAVQMSTKVLIQFLQKKAKNLDAITTPDPTTNASLLTKLQASELLDPCGYISPESPVVQLHSNFTAVCVLKEKCMDYFHVNANYIVWKTNHFTIPKEQYTIINRTASSVTFTDIASLNIQLTCNILTFGQLEQNVYGITIISGGGGGSASSESSASSDGPHPVITESRASSESSASSDGPHPVITESRSERKCCVECPPCPAPPVAGPSVFLFPPKPKDTLMISRTPEVTCVVVDVSHEDPEVQFNWYVDGVEVHNAKTKPREEQFNSTFRVVSVLTVVHQDWLNGKEYKCKVSNKGLPAPIEKTISKTKGQPREPQVYTLPPSREEMTKNQVSLTCLVKGFYPSDISVEWESNGQPENNYKTTPPMLDSDGSFFLYSKLTVDKSRWQQGNVFSCSVMHEALHNHYTQKSLSLSPGK
- IC50, inhibition of IL-6-dependent differentiation of M1 cells (percent CD32 positive cells): 0.0026 µM
- fold potency against RDB1542, inhibition of IL-6-dependent differentiation of M1 cells: > 400 fold
